Laboratory results reported in patent US11311622B2, “Development of masked therapeutic antibodies to limit off-target effects” (CITY OF HOPE, priority 2010, dated 2022).

Target: T1, MMP-9 (Homo sapiens, UniProt P14780)
T1 construct: purchased Calbiochem
Assay: MMP-9 digestion of masked and cross-masked scFvs (SDS-PAGE)
Assay type: biochemical
Conditions: into the mask and scFv proteins

T1 sequence (P14780 107-707 limits assumed, species assumed): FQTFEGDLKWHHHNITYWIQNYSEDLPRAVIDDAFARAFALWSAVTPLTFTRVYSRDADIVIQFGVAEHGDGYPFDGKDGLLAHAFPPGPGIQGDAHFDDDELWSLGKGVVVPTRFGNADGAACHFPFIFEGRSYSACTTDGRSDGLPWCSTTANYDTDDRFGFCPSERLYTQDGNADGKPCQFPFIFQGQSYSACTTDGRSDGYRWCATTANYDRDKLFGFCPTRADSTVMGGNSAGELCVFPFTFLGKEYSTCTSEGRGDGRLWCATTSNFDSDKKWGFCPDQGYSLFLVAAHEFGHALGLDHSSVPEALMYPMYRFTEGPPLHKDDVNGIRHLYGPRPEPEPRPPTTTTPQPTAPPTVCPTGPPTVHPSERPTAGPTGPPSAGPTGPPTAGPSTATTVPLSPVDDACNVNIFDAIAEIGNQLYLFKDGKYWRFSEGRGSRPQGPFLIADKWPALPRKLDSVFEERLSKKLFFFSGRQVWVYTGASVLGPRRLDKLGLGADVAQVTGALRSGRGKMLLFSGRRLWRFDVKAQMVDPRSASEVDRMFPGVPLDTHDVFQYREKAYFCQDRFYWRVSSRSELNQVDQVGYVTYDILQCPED

B1: Masked 425: sEGFRdIII (S460P/G461N) mask, MMP-9 cleavable linker, scFv 425, FLAG and H6 tags; SEQ ID NO:6 (protein)
chain: MRPSGTAGAALLALLAALCPASRARKVCNGIGIGEFKDSLSINATNIKHFKNCTSISGDLHILPVAFRGDSFTHTPPLDPQELDILKTVKEITGFLLIAAWPENRTDLHAFENLEIIRGRTKMEGQFSLAVVSLNITSLGLRSLKEISDGDVIISGNKNLCYANTINWKKLFGTSGQKTKIISNRGENSCKATGQVCHALCSPEGCWGPEPKDCVSCRNVSRGRECCSRGGGSGGGSGGGSVPLSLYSGSTSGSGKSSEGSGSGAQGELVMTQSPAIMSASPGEKVTMTCSASSSVTYMYWYQQKPGSSPRLLIYDTSNLASGVPVRFSGSGSGTSYSLTISRMEAEDAATYYCQQWSSHIFTFGSGTKLEIKGGGGSGGGGSGGGGSQVQLVESGAELVKPGASVKLSCKASGYTFTSHWMHWVKQRAGQGLEWIGEFNPSNGRTNYNEKFKSKATLTVDKSSSTAYMQLSSLTSEDSAVYYCASRDYDYDGRYFDYWGQGTTLTVSDYKDDDDKTGHHHHHH
cleavage by recombinant active MMP-9: completely cleaved
